From patent EP0672680A1 come the findings set out here.

As usually defined, the IC50 is the point on the concentration scale where inhibition reaches its midpoint.

The test concerns the target bovine lung-derived ANP receptor (bovine). Description: competition radioligand binding: displacement of 125I-rat ANP from bovine lung membrane fraction, filter assay. (Displacement assays read how much labelled ligand stays bound in the presence of the test substance.)

Square brackets hold non-standard residues; d marks the D form.

Chain of bovine lung-derived ANP receptor (bovine) (P10730 42-537): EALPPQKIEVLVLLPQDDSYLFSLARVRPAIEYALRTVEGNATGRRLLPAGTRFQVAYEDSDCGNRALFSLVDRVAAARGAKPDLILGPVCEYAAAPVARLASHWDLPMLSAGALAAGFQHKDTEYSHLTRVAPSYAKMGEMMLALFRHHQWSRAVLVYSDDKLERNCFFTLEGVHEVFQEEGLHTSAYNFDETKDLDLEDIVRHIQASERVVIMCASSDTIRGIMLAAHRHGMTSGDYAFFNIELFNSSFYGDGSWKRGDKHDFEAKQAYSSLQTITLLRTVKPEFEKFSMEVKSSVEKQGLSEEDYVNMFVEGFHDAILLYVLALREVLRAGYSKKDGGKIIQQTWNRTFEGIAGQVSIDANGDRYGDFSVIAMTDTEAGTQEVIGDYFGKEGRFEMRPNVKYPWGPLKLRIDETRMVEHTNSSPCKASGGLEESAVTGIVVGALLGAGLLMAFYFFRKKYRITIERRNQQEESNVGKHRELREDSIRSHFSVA

B1: compound (i) (H-Phe-Gly-Gly-D-Arg-Ile-Asp-Arg-Ile-NH2) (peptide)
peptide: H-FGG[dR]IDRI-NH2
SMILES: CC[C@H](C)[C@H](NC(=O)[C@H](CCCNC(=N)N)NC(=O)[C@H](CC(=O)O)NC(=O)[C@@H](NC(=O)[C@@H](CCCNC(=N)N)NC(=O)CNC(=O)CNC(=O)[C@@H](N)Cc1ccccc1)[C@@H](C)CC)C(N)=O
For the molecule B1, the IC50 was 210 nM.

B2: compound (j) (H-Phe-Gly-Gly-D-Arg-Ile-Asp-D-Arg-Ile-NH2) (peptide)
peptide: H-FGG[dR]ID[dR]I-NH2
SMILES: CC[C@H](C)[C@H](NC(=O)[C@@H](CCCNC(=N)N)NC(=O)[C@H](CC(=O)O)NC(=O)[C@@H](NC(=O)[C@@H](CCCNC(=N)N)NC(=O)CNC(=O)CNC(=O)[C@@H](N)Cc1ccccc1)[C@@H](C)CC)C(N)=O
B2 returned an IC50 of 5400 nM.
